Legend:
[1] = biological target: HIV-1 capsid capsid (Human immunodeficiency virus 1) (UniProt O93182); settings: cited from earlier work
[2] = biological target: full-length BicD2 (zz-TEV-Halo-hBicD2^FL-6×His) (human) (UniProt Q8TD16); assay: TIRF microtubule recruitment assay; Nup358^min-zip labeled at 488 nm, full-length hBicD2, dynein and dynactin (1:1:2:2), 10 nM dynein; with all, or without dynein or BicD2; microtubules labeled with Alexa Fluor 647
[3] = biological target: recombinant human cytoplasmic dynein (full-length dynein complex) (human) (UniProt Q14204); assay: single-molecule TIRF colocalization
[4] = biological target: recombinant human cytoplasmic dynein (full-length dynein complex) (human) (UniProt Q14204); assay: TIRF microtubule recruitment assay
[5] = biological target: purified HIV-1 cores labelled with GFP-Vpr (HIV-1) (UniProt P12520); assay: TIRF fluorescence intensity against a standard curve
Sequence of purified HIV-1 cores labelled with GFP-Vpr (HIV-1) (P12520 whole entry, looked up): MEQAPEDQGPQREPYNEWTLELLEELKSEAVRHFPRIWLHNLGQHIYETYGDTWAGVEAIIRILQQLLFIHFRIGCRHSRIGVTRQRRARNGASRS

Sequence of purified HIV-1 cores labelled with GFP-Vpr (P12520 whole entry, looked up): as above
Sequence of HIV-1 capsid capsid (Human immunodeficiency virus 1) (O93182 133-363): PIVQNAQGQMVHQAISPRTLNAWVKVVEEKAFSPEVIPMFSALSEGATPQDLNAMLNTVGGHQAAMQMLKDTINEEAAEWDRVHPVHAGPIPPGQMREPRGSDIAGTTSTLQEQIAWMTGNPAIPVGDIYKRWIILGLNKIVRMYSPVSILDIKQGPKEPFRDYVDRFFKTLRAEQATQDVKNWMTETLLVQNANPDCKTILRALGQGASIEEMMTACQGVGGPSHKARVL
Sequence of full-length BicD2 (zz-TEV-Halo-hBicD2^FL-6×His) (human) (Q8TD16 whole entry): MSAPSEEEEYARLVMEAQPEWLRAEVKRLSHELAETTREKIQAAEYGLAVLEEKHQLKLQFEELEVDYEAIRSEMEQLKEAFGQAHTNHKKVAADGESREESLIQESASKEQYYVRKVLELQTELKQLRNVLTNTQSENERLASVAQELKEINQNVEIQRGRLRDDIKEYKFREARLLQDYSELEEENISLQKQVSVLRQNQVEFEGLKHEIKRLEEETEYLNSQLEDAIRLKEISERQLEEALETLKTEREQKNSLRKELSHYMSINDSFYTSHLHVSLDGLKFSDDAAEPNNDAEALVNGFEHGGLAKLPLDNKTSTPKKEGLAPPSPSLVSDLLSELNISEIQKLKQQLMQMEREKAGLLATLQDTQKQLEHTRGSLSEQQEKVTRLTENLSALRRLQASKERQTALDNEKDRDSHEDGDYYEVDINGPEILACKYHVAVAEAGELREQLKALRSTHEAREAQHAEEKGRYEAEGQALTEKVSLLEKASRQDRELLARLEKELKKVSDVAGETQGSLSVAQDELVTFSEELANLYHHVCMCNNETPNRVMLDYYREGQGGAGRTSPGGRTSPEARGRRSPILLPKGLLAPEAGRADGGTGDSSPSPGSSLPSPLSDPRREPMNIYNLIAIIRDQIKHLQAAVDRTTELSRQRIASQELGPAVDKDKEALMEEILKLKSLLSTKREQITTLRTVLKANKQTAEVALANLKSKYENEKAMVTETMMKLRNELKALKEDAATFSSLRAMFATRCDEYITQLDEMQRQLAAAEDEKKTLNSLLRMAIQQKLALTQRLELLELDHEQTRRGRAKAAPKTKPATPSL
Sequence of CypA (P62937 2-165): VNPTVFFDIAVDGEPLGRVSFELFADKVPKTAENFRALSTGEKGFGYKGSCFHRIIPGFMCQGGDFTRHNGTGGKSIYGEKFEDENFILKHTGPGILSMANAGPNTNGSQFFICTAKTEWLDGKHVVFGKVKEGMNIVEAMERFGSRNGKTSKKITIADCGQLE

CypA (from UniProt P62937)
Kd [1]: > 13 µM

Nup358^min-zip [hNup358(2148 to 2240)-GCN4-SnapTag] (from UniProt P49792 2148-2240)
fold loss of microtubule recruitment when BicD2 is left out [2]: 15 fold

purified HIV-1 cores labelled with GFP-Vpr (from UniProt P12520 1-96) (complex)
percent of microtubule-bound cores colocalized with dynein [3]: 75.6%
fold increase of cores on microtubules (with dynein, dynactin and BicD2^FL) [4]: 3.4 fold

recombinant human cytoplasmic dynein (full-length dynein complex) (from UniProt Q14204 1-4646; Q13409 1-638; O43237 1-492; P63172 1-113; P63167 1-89; Q9NP97 1-96)
stoichiometry N (dynein dimers per HIV-1 core) [5]: 11.6

— PMC12175901
